Data: a protein production outcome set (Wang et al. 2014)

Experiment: label from the status in PepcDB records

## MPDTPAEGYGNTLSSLALDHNWRTIYPLGAYQLSGLAWVDPQALWLRQLPRLPFCQATLGASFLALDRVRGFILLINGENDHSEILNPYDLEPFLDANGLCLYRETLWFCRDTWLYRCHLPDWHVEKMLECRYPIYGVAVDETGIYVACQKSGYIHCFDETGREQYRLSAPGIGCENLALKDGYLWVSDRLEQSIYCLDRHSGHVEWVALTPFAQPTAFTFDATGQLWVAYGGEEAYLRDNPNNREAPLEIDYRDICLIHPLLYHTHREQHYTLSNGYLIEMAYVEELSPLDALHLDNLEWRIALPANSPRQKLLRVEPVGTPFRLETVADQQVAVFDFPELRPYEARLFGWRAWLEVRGMKYHLSFDNIDETQPLPSEFAAQYLVDNDELAMDQPIVQEAAREAVGTETNILRKMLKIRNYVYDRLSYAMRPTIETPDVVLKRGTGSCGEYVGVLLALARLNGIACRTVGRYKCPPYPQKRGIPLQPTYNHVWLEFYVPGVGWVPMESNPDDVVERGPYPTRFFMALPWYHVEVGKGIRFETTNYRDRGVRLGDLALNHVRFTIHSELPPLLLEHHHHHH
  protein production: failed

## MNAIWIAVAAVSLLGLAFGAILGYASRRFAVEDDPVVEKIDEILPQSQCGQCGYPGCRPYAEAISCNGEKINRCAPGGEAVMLKIAELLNVEPQPLDGEAQEITPARMVAVIDENNCIGCTKCIQACPVDAIVGATRAMHTVMSDLCTGCNLCVDPCPTHCISLQPVAETPDSWKWDLNTIPVRIIPVEHHA
  protein production: failed

## MSSLILSTFAERLTELGQRTTFLELPPYLDRSFPNSNSGKVVQVGKYLPPEVKHKAVDLLREYKDV
  protein production: failed

## MSVGVEVLTISFVVIVIAAVIGFLARSKNVSLEQWAVGGRNIGALLIWFLLAGEIYTAFTFLGVPGYAYAFGAPAYYALSYGVLAYLTSYFILPKIWRISKKKNIMTQPDFFKERYQSTLLATIVAVVGVVFMVPYLELQVSAITDILEVMGYNVIMPAYVMIITFVLTAGYVIMNGLRSATFTAFFKDGLALIVIFSALIVIPAVQFGDLNNMMHRMVTNYSEYLYFPGHSELGLSWFVSVVLMSALGFFMWPHSFQSYISAKNDNVLKKNAVFLPVYNVLLVITVFMGFAALLYNPHLSNADDAFLIVARASFPSWWNGVVAGAITLGSMVPASVLLIASSTIISKNLYKDLINKKASDSSVKFIAQVFVAIITGVALLFAIEFPALFVNLLLLGYSGITLFFPGIVMGITWRKVTAVGVISGIITGLIVNAVFFLPLSSYSHIIYPGLVGLFADTVVTILVSLVTKAPSGEVIEEFVTA
  protein production: failed

## MIGFIGSVFSPWYRWSGRKEPQNHCCLNVATYGPGGRFTMTDRGRAALRQSPDTLTVGPSRMHWTGTQLIVEVNEISSPPLVSPVKGRIVLTPTGITDVEVTLKDDGSHIWRPFAPTARIEVDLTQGHRWHGHGYFDANFGTAALEADFRFWTWGRYPVADGAACFYDATRRDGSRLELGLHVAADGRARLIQPPPEARFARSRWLVERHTPADPGTRPRQVMSMLDAPFYSRAMVETTVFGQKTVGVHEALDLRRFRSPLLMPMLAVRVPRRP
  protein production: failed

## MNKRNWTAYYNSTKQNTLPRKSLLKAIANFDKEKINLSKSAIDLGCGAGIDVMELLRCGWSVIAIDSQLSAIDSLLSSAQELTCANKLKTIISSFEALDSLPKVNLINASFSLPFLKPVYFYKFWSVILKGLKPGGRFSGSFFGFNDFWNTRTDMTFLNREMICHLFSQFKIEYFQEEEKDEMDALGYYKHWHKFFIVAKKIALEHHHHHH
  protein production: failed

## DQDTLVQRAEHIPAGKRTPMCAHCNQVIRGPFLVALGKSWHPEEFNCAHCKNTMAYIGFVEEKGALYCELCYEKFFA
  protein production: not failed

## MLQSKVFKYSRWDIACCLVIPFQISVYALLAYYYQSMSLLALLGMIPVLFALSLQNAGANHNHYHTPFFRIRWMNTLTRMGFSATEAPKTPYNIGHGIHHATHQSWNDKSILAVLGLKRSIAQQLISFGLFIFESLGVKYFTLLVLLKYWPIERVAVLASPEDPVLAARALKKLLEPAKLKAAKYDLAAWFLFRLVLCVVDWQFFFFYFIPVTYLIDTLRQGENYFQHWGATDPNDPKRDSVSCYSTLYNLLTFNLGYHQEHHYKPGLHWLKLPELTKELPSDRHTVPYSHYLNSPLMFPERASQLRKENVADVSP
  protein production: failed

## MWTYSEYIIFFGIYSFIGWVLETIFASVNDKKIVNRGFLTGFFCPIYGFGAILTVQCSRMVGLSFKNPIISLISSVIFSIFLVTFLEYVTGFILEAIFNCKWWDYSNDAANIHGYICLKYSLLWGMLAFLLVQTIHPLISKMVFNISATTKEKVSIFLLVYFMIDTIKSVIDALNLRQAIMEYSNFSINKYRERILKYKRLIIAFPRLIILNRDIRRIVNDRFYKIKLEIKSKIQELF
  protein production: failed

## MSDLTFNKIAGGVLLTGLVIFGLREASSIVFSKPEVEKAGYEIAVQEESAGGAAVVESLPDWNAVLTPANVAAGQAVAAKCAACHKFDASNANGTGPGLWDVVGRKPAAHADFNYSTGMKEFAAKTPVWDYDHLYEFLKAPGKYVSGTNMTFVGLKKQEDRIAMIAYMHSLGSKLPVPPPRPVAAPAPAEGAAPAAEGAAPAAEGAAPAAAGAAPAAPAAAAPAAPKA
  protein production: failed

## MKLMDVHVLFSGGKDSSLSAVILKKLGYNPHLITINFGVIPSYKLAEETAKILGFKHKVITLDRKIVEKAADMIIEHKYPGPAIQYVHKTVLEILADEYSILADGTRRDDRVPKLSYSEIQSLEMRKNIQYITPLMGFGYKTLRHLASEFFILEEIKSGTKLSSDYEAEIRHILKERGESPEKYFPEHKQTRVVGLKKEI
  protein production: not failed

## MSRELKLRIVSAIVMAAVILAATWYGGILFRIVAGLLAILIYYEWSTITRMSETNSTGNAWGWFAVAVIAGNTIFGESSLDLPLLSGFTLTAALFPVLRGKNWWLVGGIFYAGLSGISLAAIRGDELAGFASILFIFAVVWSTDILAYFVGRAIGGPKLAPSISPGKTWSGAVGGAVAAVIGGAAVSMAYHGRISLLLVGLALVLSVFSQIGDLFESFVKRRFQVKDSSHLIPGHGGFMDRVDGLVFACFTVFLIAFVHAAATGDVPGSGGGLLPGF
  protein production: failed

## VWRPKSVSRDDVMVTEYGAVTSERPLPAGTTYSATSVTPPDDPEVLRTSGRDYPADIESRYTGVPASTSAQVGPFTDRLTEDSDSPYQTAATIEQWLEANKNYSLNVSQPPEDDVASEFIFQMDKGYCEYFATSMVVMLRSQDIPARYVVGYSTGERTGQNQYTVRGMNAHAWVEVYFEGVGWVKFDPTPGQ
  protein production: failed

## MKIAVVDGQGGGIGKAVVEKLRKELPEDTQIIALGTNALATTLMLKAGANEGASGENAIVFNAPKVDIIVGPIGIISANSMMGELTPLMAAAIAESPARKILIPLNRCNIEIAGVKNEPLPYYIEHAVEMVKKYVEGHIALEHHHHHH
  protein production: not failed

## MNKRPARPTRSRRRISVAPATRQLRNARQMMADDIAVARAVERGELETEEHPTHGATNAEKAAESGLQPQPSDHEKAEVATSKHGLPKLTIVLLTVAAAWLGLSFLHELSSVVAPLFFGLNLLITAYPIHTWLVKHKCPRWISATTAGTAVIVVLAAGVVGMVWSVAAMINQLQSYIPQMEKIYTQLLHWSTQLGYSQDVIADKLKKIDPQQVMSVVTSVASDTTSVVTMIIVILTGMIFMVMDTPQMHDRLRMAGSRKPDVVLALESFASGIRKYWLVTTVFGLIVALFDWAALLIIGVPLAGVWALFSFLTNYIPNIGFIIGVIPPALLALFKDGWVAAVAVVVSYSVLNFVIQSIIQPKFAGDAVGLTPTMSFVSLLLWGWVFGALGTLIALPCSLLVKATLIDHDPGARWVNALISSRPTEGLEDNPDE
  protein production: failed

## MTLTDISLAQAFISIPQDVIALDLSNNLLGSKSCVDLLVNIADCIPAGVTSLDLSSNGLRLTQVSLVTPKHVTSLNLCFNPLHEISIDGLEWLKDSLAHIQIIYLSYDMVNNMSREQRQAFRAVIPNIQTIILVDKNGKEIGPSHTAKIANLISELGGGNPEVPSLEHHHHHH
  protein production: failed

## MNIRPAATLVLTRDTDNGIEVLLLQRTWEAVFLPGYYVFPGGAVNAQEPEGRAHVVGVEDADISQTMSLDEGGADYMLAAVRECFEEAGILLAQDASGQLIGADHGVHSERMALFQEEISLAQLCAKHGLTVPLDRLAYLSHWVTPPGPPRRFDTRFFVAVAPEGQVASHDGTETIDHVWIAPAQALEEHRAGARLLGLPTIRTLRVLSEFGTTGEMMRYAHANPPEAFPDQPWPAVRKGKPVMLEPNAPAYDEAVKLDPEGEGSTRAEIVPGEPVEVAAGVIRLTAPNPGMMTGPGTNTYILGHERFTVLDPGPANEAHIERILELTGGVVDQVVVTHTHMDHSPAVAQLKARTGCRVFGWPAPEGAGQDQGFTPDDQPGHEDLIVTEAGILKVLHTPGHASNHLCYLLLDQELLFSGDHIMQGSTVVINPPDGDMKAYIDSMYDLLAEPVRFIAPAHGFLMGQPAAVMDYLITHRLSREHKVWRALEALAPVSLKDLTARAYDDVPAAIHGLAARSALAHLLKLEAEHRAFADDGLWQVVAPD
  protein production: failed

## MIKGFRLWILIVSLGLSFSFLGYQWLTRYNFNTDHQVGDVIDSLNGVEIYYNGGVNTNEGRNLSLDGYNLGIKYQCVEFVKRYFYQRYQHQMPDSFGHARDFFDNLLTDGSWNEKRALRQFTNGSQSKPMADDLLVFAPWILNPYGHVAIIAAVTDKGIEIAQQNPGPFAPSREYFPLIQRDGLWYIDAPRAKGWLRWEATSPNVATENSGFIDPVMVIKELEHHHHHH
  protein production: not failed

## MNLRAIKAILIKDLKEIRREKMVVFWIFVFPLMWVTLMGALWGGPGSPVTVDVGVVNPGGNISTLITEIMENSTINGTQLFNVKLFPNASLGIEALKHGSIKALVLFPEDFDINITSGLQGRVLVYFDKTDPQNYQIVSSIIRSFFSEVGREFRARKIEMMMQYIPTEYKEYLLATAEPIVLEEKIIHGESGRGIKFYVTSFIGIQFFFATMLMIGGSVLEEITKGTLRRIAASPTTPWDFLIGKSLSTLTTIIVSIIIGIGYARVVFGATLFPSLFGWAIIFTAAVFSMSLGLAIVMLTRSERSTPAVVNLVSMPLLFLAGIVIPESIMPEWARPIAHYFPLGRALKVLRLSDIYGRPPGELVGDFIYVLIWSVLMAMVAVASYAWAIRRID
  protein production: failed

## AIVHEMLKDTHPQYAYRSGMSAQEFTQWQDGVRAAMVEIMKFPEIKRQPSPVCVKTEKKEGYILEKWEFYPFPKSVSTFLVLKPEHLKGAVPGVLCIPGSGRTKEGLVGEPGICDKLTEDYNNPKVSMALNMVKEGYVAVAVDNAAAGEASDLECYDKGWNYDYDVVSRFLLELGWSWLGYTSYLDMQVLNWMKAQSYIRKDRIVISGFSLGTEPMMVLGVLDKDIYAFVYNDFLCQTQERAVVMTKPDKENRRPFPNSIRHLIPGYWRYFNFPDVVASLAPRPIIFTEGGLDRDFRLVQSAYAASGKPENAEFHHYPKFADKAVRKDVEHLDEGLDSKTYFEAVNVDPPSHYFKNELVIPWLRKVLK
  protein production: not failed

## MNEKIEQAIREMGFKNFTEVQSKTIPLMLQGKNVVVRAKTGSGKTAAYAIPILELGMKSLVVTPTRELTRQVASHIRDIGRYMDTKVAEVYGGMPYKAQINRVRNADIVVATPGRLLDLWSKGVIDLSSFEIVIIDEADLMFEMGFIDDIKIILAQTSNRKITGLFSATIPEEIRKVVKDFITNYEEIEACIGLANVEHKFVHVKDDWRSKVQALRENKDKGVIVFVRTRNRVAKLVRLFDNAIELRGDLPQSVRNRNIDAFREGEYDMLITTDVASRGLDIPLVEKVINFDAPQDLRTYIHRIGRTGRMGRKGEAITFILNEYWLEKEVKKVSQKA
  protein production: not failed

## PGVELRTAADFADDPRPLFELDAETSGDEPGDVDHEFTDYEAWLEETWRHPLLSHELTSVALVDGRPAAFSAARTDGATRYHTGMTGTARAFRGRGLAKLAKNDSLHRARAAGFTEAFTGNDAGNEPMLAINKWFGYEICATEVRYVRELG
  protein production: failed
